{
  "source": "patent US20210210159A1",
  "about": "“COMPUTATIONAL PROTEIN DESIGN USING TERTIARY OR QUATERNARY STRUCTURAL MOTIFS” (Trustees of Dartmouth College, priority 2018, published 2021)",
  "assay": "Fast Protein Liquid Chromatography / size-exclusion chromatography, oligomeric state",
  "format": "physicochemical",
  "details": "concentration of at least 10 μM",
  "description": "Based on the standards, the dimeric protein would be expected to elute at the volume indicated by a dotted line, which eliminates the possibility of design oligomerization.",
  "data": [
    {"substance": "native mCherry: Red Fluorescent Protein mCherry (PDB code 2H5Q), design template (SEQ ID NO. 1) [reference compound]", "values": [
      {"measurement": "oligomeric state in solution", "value": "monomeric"}
    ]}
  ]
}
